Reference: WO2014171532A1 (dated 2014)

Tests used:
[1] = molecular target: T1, human sTWEAK protein (Peprotech, 310-06) (human, UniProt O43508 97-249); test: ELISA, sTWEAK immobilised at 0.5 μg/mL, antibody 80 nM to 0.0000003 nM, chemiluminescence
T1 construct: Bought protein; also called soluble type TWEAK; ヒトsTWEAK
T1 sequence: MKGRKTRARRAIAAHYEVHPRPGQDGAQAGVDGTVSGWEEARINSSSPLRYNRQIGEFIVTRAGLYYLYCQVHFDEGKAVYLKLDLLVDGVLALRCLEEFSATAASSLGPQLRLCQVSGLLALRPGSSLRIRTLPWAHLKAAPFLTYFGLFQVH

[2] = molecular target: T2, human mTWEAK variant expressed on HEK293 cells (human, UniProt O43508 1-249); test: flow cytometry (BD FACSArray) on HEK293 cells transfected with human mTWEAK vector, antibody 80 nM to 0.001355 nM, MFI
T2 construct: also called human mTWEAK mutant; membrane type TWEAK
T2 sequence: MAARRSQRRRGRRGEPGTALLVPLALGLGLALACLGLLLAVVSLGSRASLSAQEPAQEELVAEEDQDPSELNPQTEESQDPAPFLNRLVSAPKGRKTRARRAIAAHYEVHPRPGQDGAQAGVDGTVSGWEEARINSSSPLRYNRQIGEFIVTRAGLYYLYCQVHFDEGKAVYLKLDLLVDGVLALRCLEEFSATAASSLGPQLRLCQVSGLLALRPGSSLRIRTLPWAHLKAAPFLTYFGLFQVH

[3] = molecular target: T2, human mTWEAK variant expressed on …; test: hybridoma screening (Examples 3-6)
[4] = molecular target: T1, human sTWEAK protein (Peprotech, 310-06); test: hybridoma screening, antigen ELISA on immobilised sTWEAK (Examples 3-6)

| binding result [1] | binding result [2] | binding result [3] | binding result [4] | Binder |
| --- | --- | --- | --- | --- |
| binds | binds |  |  | fully human TBA3-25 (antibody, human IgG1, kappa, V domains shown, in most of the purified antibody: N-terminal glutamine (amino acid 1) modified to pyroglutamic acid; C-terminal lysine (amino acid 448) deleted, Human variable regions of TBA3-25 joined to human Ig gamma1 and human kappa constant regions; Analysis of the purified antibody found pyroglutamate at the heavy chain N-terminus and loss of the heavy chain C-terminal lysine in most of it; also called fully human antibody of TBA3-25; 完全ヒト型TBA3-25) VH: QVQLVQSGAEVKKPGASVRVSCKVSGYTLIDLSMHWVRQAPGNGLEWMGGFDPENGEKIYAEKFQGRVTMTEDTSTDTAYMDLSSLRSEDTAVYYCASGYSYGHFDYWGQGTLVTVSS VL: DIQMTQSPSTLSASVGDRVTITCRASQNIGRWLAWYQQKPGKAPNLLIYKASRLESGVPSRFSGSGSGTEFTLTITSLQPDDFATYYCQQYNRYSRTFGQGTKVEIKR |
| binds | binds |  |  | fully human TBA4-1 (antibody, human IgG1, kappa, V domains shown, Human variable regions of TBA4-1 joined to human Ig gamma1 and human kappa constant regions; also called fully human antibody of TBA4-1; 完全ヒト型TBA4-1) VH: QVQLVESGGGVVQPGRSLRLSCAASGFTFSSYGMHWVRQAPGKGLAWVAIISSDGNNKYYIDSVKGRFTISRDNSKNTLYLQMNNLRAEDTAVYYCAKDSHISIFGAVDSWGQGTLVTVSS VL: AIQMTQSPSSLSASVGDRVTITCRASQAIRNDLGWYQQKPGKAPKLLIYAASSLQSGVPSRFSGSGSGTDFTLTISSLQPEDFATYYCLQDYNYPWTFGQGTKVEIKR |
| binds | binds |  |  | fully human TBA3-35.1 (antibody, human IgG1, kappa, V domains shown) VH: EVQLLESGGGLVQPGGSLRLSCAASGFTFSSYAMSWVRQAPGKGLEWVSAIGNSGFYTHYADSVKGRFTISRDNSKNTLYLQMNSLRAEDTAVYYCAKVGIAVVGDYYQFGMDVWGQGTTVTVSS VL: DIQMTQSPSSLSASVGDRVTITCRASQGIRNDLGWYQQKPGKAPKLLIYGASSLQSGVPSRFSGSGSGTDFTLTISSLQPEDFATYYCLQDYNYPWTFGQGTKVEIKR |
|  |  | binds | binds | TBA4-1 (chimeric antibody) (antibody, V domains shown) VH: QVQLVESGGGVVQPGRSLRLSCAASGFTFSSYGMHWVRQAPGKGLAWVAIISSDGNNKYYIDSVKGRFTISRDNSKNTLYLQMNNLRAEDTAVYYCAKDSHISIFGAVDSWGQGTLVTVSS VL: AIQMTQSPSSLSASVGDRVTITCRASQAIRNDLGWYQQKPGKAPKLLIYAASSLQSGVPSRFSGSGSGTDFTLTISSLQPEDFATYYCLQDYNYPWTFGQGTKVEIKR |
